Measurements as given in patent publication US20210002358A1 (Janssen / Centocor, published 2021).

Molecular target: T1, soluble tau (control tau, recombinant 2N4R tau, SEQ ID NO: 31) (human, UniProt P10636 2-758)
T1 construct: also called Sol-tau; recombinant WT tau
Assay: direct ELISA on 2N4R Tau coated at 1 ng/mL
Procedure: Binding to recombinant WT (2N4R; SEQ ID NO:31) tau was analyzed by ELISA where full-length Tau protein (1 ng/mL or 10 ng/mL) was directly coated to the plate and incubated with different concentrations of either recombinantly- or hybridoma produced PT82 antibody (FIG. 2). After incubation with antibodies, plates were again washed and 50 μL per well of HRPO labelled anti-mouse antibody (GE Healthcare) (diluted 1:10000 in blocking buffer) was added. After another washing step detection was performed with “One step” TMB (Thermo Scientific) according to the manufacturers' instructions. Plates were analysed in EnVision® 2102 Multilabel Reader (Perkin Elmer, Waltham, Mass., USA). Binding curves were generated using GraphPad Prism7.0 software. […] No substantial difference has been observed between binding profiles of recombinant and hybridoma produced antibodies.

T1 sequence (P10636 other isoform, or with tags, fused parts or gaps limits assumed): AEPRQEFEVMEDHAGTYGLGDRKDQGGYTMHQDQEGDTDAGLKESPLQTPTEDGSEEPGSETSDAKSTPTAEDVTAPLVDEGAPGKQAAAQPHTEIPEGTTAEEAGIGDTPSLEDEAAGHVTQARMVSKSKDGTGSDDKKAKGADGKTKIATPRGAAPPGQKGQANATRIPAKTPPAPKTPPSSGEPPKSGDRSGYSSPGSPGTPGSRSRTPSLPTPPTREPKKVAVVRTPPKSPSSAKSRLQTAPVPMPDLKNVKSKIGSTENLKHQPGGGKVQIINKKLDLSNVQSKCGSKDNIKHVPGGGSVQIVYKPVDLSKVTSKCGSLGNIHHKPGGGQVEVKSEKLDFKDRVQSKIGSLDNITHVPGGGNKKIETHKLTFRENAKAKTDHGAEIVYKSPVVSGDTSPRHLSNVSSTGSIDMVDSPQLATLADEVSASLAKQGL

B1: PT82 mAb (recombinantly expressed, mouse IgG2a/kappa) (antibody, V domains shown)
VH: EVKLEESGGGLVQPGGSMKLSCVASGFTFSNYWMNWIRQSPEKGLEWVAQIRLQSDNYATRYAESVKGRFTISRDESKTSVYLQMNNLRTEDTGIYYCTGGTTYWGQGTLVTVSA
VL: DIVMTQSQKFMSTSVGDRVSITCKASQNVGTAVAWYQQKPGQSPKLLIYSASIRYTGVPDRFTGSGSGTDFTLTINYMQSEDLADYFCQQFSSYPYTFGGGTKLEIK
notes: also called recombinant PT82; mouse PT82
- EC50 (read off the curve): ~0.04 µg/mL
